In the assay the target is 新型冠状病毒SARS-CoV-2受体结合域RBD重组蛋白 (pET-28a(+)/RBD, E. coli Rosetta) (SARS-CoV-2, UniProt P0DTC2 319-541). As to the kind of experiment: BLI (Fortebio), KD = Kdis/Kon. Background: Biolayer interferometry detects binding as a change in optical thickness at a sensor tip.

B1: 全人源抗新冠病毒受体结合域单链抗体No4 (purified recombinant scFv from pET-30a(+)/anti-RBD No4 in E. coli Rosetta) (scFv, not shown: small tags and cut ends)
scFv: RSSCRNPGGALVQPGGSLRLSCETSGFTFSRYWMNWFRQAPGKGLVWVSHISNNGRVTGYADSVKGRFTISRDNAKNILYLQMSGLRAEDTSLYYCARVHNAFCNSVSCVDAFDVWGQGTTVTVSSGGGGSGGGGSGGGGSDIVMTQTPSSLSASVGDRVTITCRASQRINSLLNWYQHKPGKPPKLLIYGASTLQSGVPSRFSGSESGADFTLTISSLQPEDVGTYYCQKYNSAPHTFGQGTRLEIK
notes: also called 抗RBD单链抗体No4; 抗RBD单链重组抗体No4
B1: binding was put at a Kd of 1.61 nM.
